These results are taken from patent US5508261, “Analogs of glycoprotein hormones having altered receptor binding specificity and activity and methods for preparing and using same” (University of Medicine & Dentistry of New Jersey, dated 1996).

Numbering of substitutions follows the chain as printed.

Test [1] has as its target rat luteal ovarian LH receptors (rat, UniProt P16235). In words: inhibition of 125I-hCG binding to rat luteal ovarian LH receptors. On the procedure:
(§1) The concentrations of the analogs were determined by sandwich immunoassay using antibodies B105 and A113. The term "N.D." means not determined because concentrations of analog were not employed high enough to detect 50% inhibition.
An aliquot of the ligation mixture was taken and used to transform DH5-alpha strain E. coli. (obtained from Bethesda Research Laboratories, Gaithersburg, Md.). Plasmid DNAs from ampicillin-resistant DH5-alpha clones were screened by digestion with BglII (which is unique to vectors containing the cassette) and EcoRI (which cuts in the vector). Positive clones were identified by the presence of two fragments (approximately 0.8 Kbp and 2.9 Kbp). […] The remainder of the beta-subunit cDNA (encoding hCGβ amino acids 1–87) was restored by ligation of the 2.3 Kbp PvuI-PvuII fragment of this vector and the 2.9 Kbp PvuI-PvuII fragment from pSVL-hCG-beta'. […] After the DNA was subjected to a dideoxy sequencing procedure to confirm that it encoded "GT" (Table 1), the plasmid DNA was then cotransfected into COS-7 cells (obtained from the American Type Culture Collection) along with pSVL-hCG-alpha, a pSVL-based plasmid encoding the human glycoprotein hormone alpha-subunit (10, 21), using a DEAE-dextran procedure (10).

In test [2] the target is T1, bovine testes FSH receptors (bovine, UniProt P35376). In words: inhibition of 125I-hFSH binding to bovine testes FSH receptors. On the procedure:
as §1

Test [3] deals with T1, bovine testes FSH receptors. The experiment in a line: inhibition of 125I-hFSH binding to bovine testes FSH receptors (N.D. in Table 3).

B1: recombinant hFSH (ligand)
chain 1: not shown
chain 2: NSCELTNITIAIEKEECRFCISINITWCAGYCYTRDLVYKDPARPKIQKTCTFKELVYETVRVPGCAHHADSLYTYPVALQCHCGKCDSDSTDCTVRGLGPSYCSFGEMKE
As for B1, the binding result in test [1] is given as “no binding”.

B2: recombinant hCG (ligand)
chain 1: not shown
chain 2: SKEPLRPRCRPINATLAVEKEGCPVCITVNITICAGYCPTMTRVLQGVLPALPQVVCNYRDVRFESIRLPGCPRGVNPVVSYAVALSCQCALCRRSTTDCGGPKDHPLTCDDPRFQDSSSSKAPPPSLPSPSRLPGPSDTPILPQ
As for B2, in test [2], the binding result is reported as “no binding”.

B3: Analog "D" (ligand)
chain 1: not shown
chain 2: B2 chain 2 with R94D, R95S, S96D, T97S
In the case of B3, in test [3], the binding result is listed as “no binding”.

B4: Analog "GT" (ligand)
chain 1: not shown
chain 2: SKEPLRPRCRPINATLAVEKEGCPVCITVNITICAGYCPTMTRVLQGVLPALPQVVCNYRDVRFESIRLPGCPRGVNPVVSYAVALSCQCALCRRSTTDCIHEAIKTNYCTKPQKSY
In the case of B4, the binding result in test [3] was “no binding”. Besides, in test [1], the “activity relative to hCG (LH RECEPTORS; ratio of concentrations for 50% inhibition)” value is 0.33 relative to recombinant hCG.

B5: Analog "Q" (ligand)
chain 1: not shown
chain 2: SKEPLRPRCRPINATLAVEKEGCPVCITVNITICAGYCPTMTRVLQGVLPALPQVVCNYRDVRFESIRLPGCPRGVNPVVSYAVALSCQCALCDSDSTDCGGPKDHPSYCSFGE
Consider B5, for which the binding result in test [2] is “no binding”. In addition, in test [1], the “activity relative to hCG (LH RECEPTORS; ratio of concentrations for 50% inhibition)” value is 0.15 relative to recombinant hCG.
